Test results reported in article PMC11703243.

Legend:
[1] = biological target: Alexa Fluor 488-labeled BAX^WT (human) (UniProt Q07812); experiment: SEC
[2] = biological target: BAX, recombinant human, wild type (human) (UniProt Q07812); experiment: SEC

Substance | stoichiometry N [1] | stoichiometry N [2]
Alexa Fluor 488-labeled BAX^WT (from UniProt Q07812 1-192) (natural protein) | 2 | –
BAX, recombinant human, wild type (from UniProt Q07812 1-192) (natural protein) | – | 2
